# Data taken from the supplement of paper PMC6757056.
# ± gives the standard deviation of the averaged measurements.
# B1: library; a variant is named by its letters at N, in order (parent)
# chain: GCUGUCACCGGUGUAUUACCCUAGUGGUCGACCGGUCUGAUGAGUCUNNNNNNAGACGAAACAGC
# B2: library; a variant is named by its letters at N, in order (parent)
# chain: GCUGUCACCGGAAUACCAGCAUCGUCUUGAUGCCCUUGGAAGUCCGGUCUGAUGAGUCCNNNNNGGACGAAACAGC
# Tests used:
# [1] = variants of: B1; test: FACS-Seq fitted mean relative fluorescence mCherry/BFP without ligand (log10 relative fluorescence); ligand: hypoxanthine (xanthine aptamer); higher = higher reporter protein expression; conditions: HEK293T, ligand present: no
# Protocol: (§1)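 Hammerhead (sTRSV) ribozyme switch libraries with a ligand aptamer grafted on stem I and a randomized N4-6 loop II, cloned into the 3' UTR of mCherry and transiently transfected into HEK293T cells; RNA-Seq 72 h post transfection with ligand added 1 h before transfection; RNA read count / plasmid DNA read count normalized to the non-cleaving sTRSVctl (x100), log10; sequences with >100 DNA reads. FACS-Seq: lentiviral library sorted into 6 bins after 48 h ligand, log-normal fit mean of mCherry/BFP scaled to controls. Printed sequences are partial switch sequences.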
# [2] = variants of: B1; test: normalized RNA/DNA level with ligand (relative to sTRSVctl = 100) (log10 (% of sTRSVctl)); ligand: hypoxanthine (xanthine aptamer); higher = less ribozyme self-cleavage, higher mRNA level; conditions: ligand concentration (+) RNA-Seq: 5 mM, HEK293T, reporter: mCherry (pCS4076), ligand present: yes
# Protocol: as §1
# [3] = variants of: B1; test: normalized RNA/DNA level without ligand (relative to sTRSVctl = 100) (log10 (% of sTRSVctl)); ligand: hypoxanthine (xanthine aptamer); higher = less ribozyme self-cleavage, higher mRNA level; conditions: HEK293T, reporter: mCherry (pCS4076), ligand present: no
# Protocol: as §1
# [4] = variants of: B1; test: FACS-Seq fitted mean relative fluorescence mCherry/BFP with ligand (log10 relative fluorescence); ligand: hypoxanthine (xanthine aptamer); ligand concentration (+) FACS-Seq: 5 mM; higher = higher reporter protein expression; conditions: HEK293T, ligand present: yes
# Protocol: as §1
# [5] = variants of: B2; test: FACS-Seq fitted mean relative fluorescence mCherry/BFP without ligand (log10 relative fluorescence); higher = higher reporter protein expression; conditions: HEK293T, ligand present: no
# In short: (§2)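 HEK293T libraries were made by lentiviral transduction with a ribozyme-switch mCherry reporter and an EF1α-BFP marker, enriched, and incubated with or without ligand for 48 h. Cells were sorted into 6 mCherry/BFP bins, and each bin's genomic DNA was PCR-amplified, barcoded and run on MiSeq. Fluorescence was derived by normal fitting of the bin counts. The fitted log10(mCherry/BFP) mean was scaled to five spiked-in control ribozymes.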
# [6] = variants of: B2; test: normalized RNA/DNA level with ligand (relative to sTRSVctl = 100) (log10 (% of sTRSVctl)); higher = less ribozyme self-cleavage, higher mRNA level; conditions: ligand concentration (+) RNA-Seq: 5 mM, HEK293T, reporter: mCherry (pCS4076), ligand present: yes
# In short: (§3)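 Only sequences with at least 100 DNA reads were analyzed, from HEK293T cells transfected with 4 µg per 6-well well of ribozyme switch library plasmids 72 h before RNA extraction with EDTA. Any ligand was added 1 h before transfection. RNA level was defined as RNA over DNA reads, normalized to a spiked-in non-cleaving sequence or to the top sequences, then scaled and log-transformed. The top set was 25 sequences, and the scaling was ×100 followed by log10.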
# [7] = variants of: B2; test: normalized RNA/DNA level without ligand (relative to sTRSVctl = 100) (log10 (% of sTRSVctl)); higher = less ribozyme self-cleavage, higher mRNA level; conditions: HEK293T, reporter: mCherry (pCS4076), ligand present: no
# In short: as §3
# [8] = variants of: B2; test: FACS-Seq fitted mean relative fluorescence mCherry/BFP with ligand (log10 relative fluorescence); ligand concentration (+) FACS-Seq: 1 mM; higher = higher reporter protein expression; conditions: HEK293T, ligand present: yes
# In short: as §2
Variant,FACS-Seq fitted mean (log10) [1],normalized RNA/DNA level with ligand (log10) [2],normalized RNA/DNA level without ligand (log10) [3],FACS-Seq fitted mean (log10) [4],FACS-Seq fitted mean (log10) [5],normalized RNA/DNA level with ligand (log10) [6],normalized RNA/DNA level without ligand (log10) [7],FACS-Seq fitted mean (log10) [8]
AAAACU,0.313 ± 0.03,1.91 ± 0.093,1.8616 ± 0.00097,0.4 ± 0.12,–,–,–,–
UAAAUU,0.543 ± 0.057,1.92 ± 0.024,1.85 ± 0.035,0.516 ± 0.066,–,–,–,–
UAAAUA,0.398 ± 0.012,1.92 ± 0.026,1.836 ± 0.002,0.49 ± 0.045,–,–,–,–
UAAAUG,0.306 ± 0.023,1.936 ± 0.015,1.73 ± 0.035,0.483 ± 0.081,–,–,–,–
GAACGG,-0.137 ± 0.019,1.74 ± 0.081,1.22 ± 0.085,0.484 ± 0.059,–,–,–,–
GAACGC,0.366 ± 0.038,1.85 ± 0.038,1.592 ± 0.0033,0.684 ± 0.031,–,–,–,–
GAACGA,0.281 ± 0.023,1.91 ± 0.049,1.62 ± 0.046,0.454 ± 0.011,–,–,–,–
UAAAAA,0.315 ± 0.015,1.905 ± 0.019,1.784 ± 0.00081,0.22 ± 0.0062,–,–,–,–
UAAAAC,0.723 ± 0.03,1.914 ± 0.0064,1.826 ± 0.0019,0.769 ± 0.068,–,–,–,–
UAAAAU,0.434 ± 0.055,1.89 ± 0.071,1.76 ± 0.0046,0.454 ± 0.039,–,–,–,–
CAAAAA,0.52 ± 0.1,1.9 ± 0.04,1.74 ± 0.025,0.526 ± 0.038,–,–,–,–
CAAAAG,0.0525 ± 0.066,1.87 ± 0.026,1.59 ± 0.038,0.174 ± 0.031,–,–,–,–
CAAAAC,0.248 ± 0.079,1.9 ± 0.035,1.78 ± 0.028,0.0907 ± 0.058,–,–,–,–
GAACCG,0.156 ± 0.11,1.9 ± 0.08,1.48 ± 0.052,0.296 ± 0.017,–,–,–,–
GAACCA,0.493 ± 0.094,1.948 ± 0.018,1.816 ± 0.014,0.365 ± 0.0063,–,–,–,–
GAACAA,0.477 ± 0.021,1.91 ± 0.046,1.732 ± 0.0073,0.62 ± 0.022,–,–,–,–
GAACAG,0.213 ± 0.041,1.8069 ± 0.00086,1.42 ± 0.061,0.674 ± 0.014,–,–,–,–
GAACAC,0.66 ± 0.029,1.95 ± 0.029,1.74 ± 0.024,0.622 ± 0.049,–,–,–,–

Variant,FACS-Seq fitted mean (log10) [1],normalized RNA/DNA level with ligand (log10) [2],normalized RNA/DNA level without ligand (log10) [3],FACS-Seq fitted mean (log10) [4],FACS-Seq fitted mean (log10) [5],normalized RNA/DNA level with ligand (log10) [6],normalized RNA/DNA level without ligand (log10) [7],FACS-Seq fitted mean (log10) [8]
GAACAU,0.466 ± 0.11,1.907 ± 0.00016,1.766 ± 0.01,0.349 ± 0.12,–,–,–,–
AAACGG,0.034 ± 0.0048,1.73 ± 0.061,1.23 ± 0.082,0.486 ± 0.027,–,–,–,–
AAACGA,0.38 ± 0.042,1.908 ± 0.0036,1.63 ± 0.046,0.5899 ± 0.0039,–,–,–,–
GAAAAG,0.326 ± 0.035,1.83 ± 0.0058,1.47 ± 0.038,0.473 ± 0.036,–,–,–,–
GAAAAA,0.653 ± 0.036,1.91 ± 0.027,1.8 ± 0.041,0.629 ± 0.093,–,–,–,–
GAAAAU,0.558 ± 0.04,1.92 ± 0.034,1.8 ± 0.02,0.532 ± 0.074,–,–,–,–
GAAAAC,0.271 ± 0.058,1.87 ± 0.053,1.7 ± 0.033,0.271 ± 0.06,–,–,–,–
CAAAGU,0.529 ± 0.021,1.89 ± 0.0058,1.82 ± 0.033,0.571 ± 0.0084,–,–,–,–
UAACCG,0.631 ± 0.023,1.95 ± 0.04,1.68 ± 0.033,0.756 ± 0.013,–,–,–,–
UAACCC,0.667 ± 0.078,1.94 ± 0.08,1.856 ± 0.0018,0.767 ± 0.065,–,–,–,–
AAAAGU,0.21 ± 0.0047,1.854 ± 0.011,1.55 ± 0.032,0.339 ± 0.09,–,–,–,–
AAAAGG,0.163 ± 0.004,1.78 ± 0.06,1.26 ± 0.027,0.725 ± 0.056,–,–,–,–
AAAAGA,0.199 ± 0.0066,1.91 ± 0.053,1.67 ± 0.025,0.556 ± 0.061,–,–,–,–
AAAAUG,0.362 ± 0.024,1.857 ± 0.017,1.51 ± 0.044,0.671 ± 0.053,–,–,–,–
AAAAUU,0.401 ± 0.01,1.93 ± 0.04,1.86 ± 0.041,0.491 ± 0.064,–,–,–,–
CAAACC,0.631 ± 0.0022,1.96 ± 0.046,1.867 ± 0.0027,0.622 ± 0.027,–,–,–,–
AUGGU,–,–,–,–,0.596 ± 0.13,2.02 ± 0.032,1.78 ± 0.044,0.728 ± 0.049
AUGGC,–,–,–,–,0.932 ± 0.11,2.008 ± 0.0029,1.88 ± 0.085,0.903 ± 0.041
